# Experimental data: the supplement of paper PMC9112550, “Optimization of the antimicrobial peptide Bac7 by deep mutational scanning” (BMC Biology, 2022)
# System: Escherichia coli TOP10
# Assay: shrunken log2 fold change of peptide-encoding DNA abundance (4.5 h post-induction vs induction); higher = less antimicrobial activity (less host growth inhibition)
# Conditions: time post-induction: 4.5 h; library: site-saturation at positions 5, 18, 19, 20
# 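Further: peptides expressed intracellularly from a pBAD plasmid library in pooled LB shake-flask culture, induced with 0.3% L-arabinose, DNA abundance read by NGS, three biological replicates, DESeq2 with apeglm shrinkage.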
row,Sequence,shrunken log2 fold change
1,RRIRRRPPRLPRPRPRPCCPPRP,0.467
2,RRIRRRPPRLPRPRPRPCCYPRP,0.0352
3,RRIRRRPPRLPRPRPRPCEFPRP,-0.109
4,RRIRRRPPRLPRPRPRPCHSPRP,0.00408
5,RRIRRRPPRLPRPRPRPCICPRP,-0.0935
6,RRIRRRPPRLPRPRPRPCIIPRP,-0.474
7,RRIRRRPPRLPRPRPRPCLSPRP,-0.114
8,RRIRRRPPRLPRPRPRPCLTPRP,0.0744
9,RRIRRRPPRLPRPRPRPCNGPRP,-0.199
10,RRIRRRPPRLPRPRPRPCNTPRP,-0.295
11,RRIRRRPPRLPRPRPRPCNYPRP,0.159
12,RRIRRRPPRLPRPRPRPCPFPRP,0.0522
13,RRIRRRPPRLPRPRPRPCPKPRP,-0.0745
14,RRIRRRPPRLPRPRPRPCPQPRP,0.0779
15,RRIRRRPPRLPRPRPRPCQAPRP,0.0144
16,RRIRRRPPRLPRPRPRPCRTPRP,0.173
17,RRIRRRPPRLPRPRPRPCSDPRP,0.00368
18,RRIRRRPPRLPRPRPRPCSHPRP,-0.18
19,RRIRRRPPRLPRPRPRPCSYPRP,-0.19
20,RRIRRRPPRLPRPRPRPCTTPRP,0.212

row,Sequence,shrunken log2 fold change
1,RRIRRRPPRLPRPRPRPCWNPRP,-0.00252
2,RRIRRRPPRLPRPRPRPCYVPRP,-0.583
3,RRIRRRPPRLPRPRPRPDACPRP,0.00716
4,RRIRRRPPRLPRPRPRPDCLPRP,-0.136
5,RRIRRRPPRLPRPRPRPDCVPRP,-0.0143
6,RRIRRRPPRLPRPRPRPDDSPRP,-0.0232
7,RRIRRRPPRLPRPRPRPDFPPRP,0.897
8,RRIRRRPPRLPRPRPRPDHYPRP,-2.95
9,RRIRRRPPRLPRPRPRPDIKPRP,-0.374
10,RRIRRRPPRLPRPRPRPDKCPRP,-0.0562
11,RRIRRRPPRLPRPRPRPDKLPRP,-0.115
12,RRIRRRPPRLPRPRPRPDKYPRP,-0.259
13,RRIRRRPPRLPRPRPRPDLLPRP,0.0733
14,RRIRRRPPRLPRPRPRPDMTPRP,0.0544
15,RRIRRRPPRLPRPRPRPDNGPRP,-0.0214
16,RRIRRRPPRLPRPRPRPDPAPRP,1.18
17,RRIRRRPPRLPRPRPRPDQAPRP,-0.00925
18,RRIRRRPPRLPRPRPRPDQGPRP,-0.0712
19,RRIRRRPPRLPRPRPRPDQIPRP,-0.122
20,RRIRRRPPRLPRPRPRPDQSPRP,0.0941

row,Sequence,shrunken log2 fold change
1,RRIRRRPPRLPRPRPRPDREPRP,0.0377
2,RRIRRRPPRLPRPRPRPDRYPRP,-0.0438
3,RRIRRRPPRLPRPRPRPDSCPRP,-0.00351
4,RRIRRRPPRLPRPRPRPDSNPRP,0.0666
5,RRIRRRPPRLPRPRPRPDSWPRP,0.115
6,RRIRRRPPRLPRPRPRPDTSPRP,0.0612
7,RRIRRRPPRLPRPRPRPDTWPRP,-0.131
8,RRIRRRPPRLPRPRPRPDVIPRP,-0.068
9,RRIRRRPPRLPRPRPRPEAFPRP,0.842
10,RRIRRRPPRLPRPRPRPECDPRP,0.889
11,RRIRRRPPRLPRPRPRPEDNPRP,0.066
12,RRIRRRPPRLPRPRPRPEDTPRP,0.0364
13,RRIRRRPPRLPRPRPRPEEEPRP,0.855
14,RRIRRRPPRLPRPRPRPEEQPRP,0.231
15,RRIRRRPPRLPRPRPRPEGMPRP,1.27
16,RRIRRRPPRLPRPRPRPEHPPRP,3.32
17,RRIRRRPPRLPRPRPRPEIWPRP,0.621
18,RRIRRRPPRLPRPRPRPEKHPRP,0.121
19,RRIRRRPPRLPRPRPRPEKRPRP,0.296
20,RRIRRRPPRLPRPRPRPELDPRP,0.122
